Assay: soluble fraction after stress (log2 fold change); higher = more stays soluble; pooled small domains, quantitative proteomics
Settings: stress: pH 4
Summary of the method: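 Small protein domains from pooled custom libraries were exposed to pH 4, then quantified with high-throughput quantitative proteomics. The fold change in how much of each domain remains soluble is read as aggregation propensity. It is given as log2, with higher values meaning more stayed soluble.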

Sequence	soluble fraction (log2)
HMTLDSLEKLSVNDLEKMLVNMPVGYKTIFLLSVIDEYSHKEIGELLGITPETSRSQLFRAIKWIKTNIF	-0.706
HMLLPANLTKSQRNIAERVARGQSNLEIAADLNITERTVKAHLTSIYEKTKTGNRLNLALLINLG	-0.17
HMNFMDGFQSFFQESGAMNRPMTADVVSYRLPDGTVQQGNSTMRGLMDQYLKSIGQSPTTGVP	-0.176
HMPFESEMKHWIHLFAHELNLKVSDKYTQKIIEIFGNNFSEIFNEMSKSSLVSSNEKDLLNALEKSGNIH	-0.862
HMAEVDREEALRIALAHAAVARRDVRNLKIERGEENGVPVYKVEFETAFGDFDVAVSRRSGDVVDAD	-0.0548
HMIITTPYKVTASAINIRSGRGTSYSIIGTVSKGQTVDVYNNSLSKGWVKVKFSGSVGYAYAKYLEK	-0.116
HMNVNTHKTLILNSTFQPLSLATPQRALALLFSKKINVLKESDIKLRSVGQSVAIPKVAVLTYFVKA	0.132
HMGPWTETAAKGDAVSKRMLITWLQENADAEFLAAQKLTGQATSVAKRVTKDQLVELYLSVTTAA	-0.149
HMDGYTVYTNWGSDTNVARSDQQIQSQIPQLSGATIVGVWTKPIATGGTSYKIRYRTNSGAFTEIDVDQ	-0.0816
HMNLFKAPMPGLIRTIVVAEGQEVKKGDVILILEAMKMENALKSPADLVVKSIKVQQGQAVEKNQLLIEF	-0.14
HMEPEAKIDFILKAAQKRLGLYGYEKTTMQEIAADINMSKAALYYYFPDKESLFKAVVENEQEEYFH	-1.24
HMGMVDKSMYSRYDVGDLVKVLRGPLEGSEGHITEINTDTGTVKVETVFFGRSTVVEVDFSEIDK	-1.35
HMIAVSQEQIKQIIVDDPSFHDANGKFSQALLTQYLNQRRMSEDQFVEEIRDQFLFQNLQNLVQNG	-0.623
HMANPFQELTERELDVLRQVAAGKNNREIAEALFIGEKTVKTHISNILSKLHLADRTQAAVYAWQQGMM	-1.14
HMSDIQKGTQINLVNEPLYVSSKTSIVSTYKTGTYYTWGFEANNRIAITNKLENIGVKGQVTGWINKP	0.0239
HMGDTISVPAVRTLAYNKAMDILNAEGLKGIVADSVYDNHTAPGTVIEQNPKAGTIVKEGREVFLTIHA	-0.0483
HMGIVVDGTMTLEGVAERYGMSVGELARVIGVPPEYSNERLGRLRKSYEFEMDDIRIYIIQKQ	-1.31
HMTPTNILIVEDEKEIRRFVRTALESEGLRVFESETLQRGLIEAGTRKPDLIILDLGLPDGDGLSYIRDLR	-0.662
HMSLQDYYQVLGVFYNAGDKEIKRRWKELINQYHPDLAQAKGASPEEIENYTLKMAEINNAYEQIMKSRKA	0.0253

Sequence	soluble fraction (log2)
HMPIDIEPVLQWIRDNSIDGIGPARSMYHSAAAAAGLPSYSSLQLRKWTWPLLLDAAGVQRR	-0.265
HMLDVFSAEQVADVLSVSKRNLETWANNGKLIPDFIHGEVALYSKKQLEQFEQFQRFFNSSWDAERLIQP	-1.24
HMDAMGAVGIARAFISAGERGGDISDGLEHMHGKLLRLSSLMYTRSGKKMAARRHELLSSFVQALEEEIK	-0.0591
HMKIDLKQIEGVLDELAKVKGSLITILQKTQETYGYLPKEAIIYISERTGIAESEIMGVATFYTQFRL	-0.779
HMSGVIVPDIYNKTLAEAVASLEGEGFSTEKKEGYSDTVPKGNVMSQKPEAGTSAERGSTVTITISQGPQ	-0.0347
HMHAGQIISQKIKESGISISHVAKHLKVQRATLYNLFEREVWPAHRLRTIEALLHIDLSDLYP	-1.52
HMAVRLADMAAEKIRKMIIENKFDAGEPLSEMRLAEMFNVSRTPIREAIAILEQEGLLTTVHGKGAFIS	-0.637
HMRAPIGFRISNRRKSLKISQVALARLVGISPSYLNLIENNKRDVGGALLQRVALHLNIDIDDL	-0.219
HMSWEQELIEKANEIIDLYPEKRSALGPLLYLAQERDGYISDESIVEISNLVGITEVQVKSVASFYSMYK	-2.88
HMDTSADEVKQLIASFVEQEDKRKPLSDQKIVELLAEKEQKISRRTVAKYRDALNIPSSSKRKRF	-0.141
HMVLVLPGEMIHVQVIDEGKEMGQGVGYLDDGTMVVVENGLRHIGRAIDVQVTKVLQTNAGRMIFGQPIL	-0.952
HMDVMNEIQQKAFDIYIQSASLKNDFTPISERALAKKLHDMGLKSSMSAIGRWKKKFGWVQSLQNKVTLA	-0.183
HMITKAIELAEEAEKETVWLGVWEHNHPAQKFYQSLGFVKTDEHDFYMGNERHTDYTMTKQLK	-0.958
HMTTAGTAIVQTGNSGKLNLREQAYANAGILGRYSNGTAVTVLQKGAAWSYVEVKGQKGYMMSKFLKFTS	-0.341
HMNLYERFPIHELWKETFNETLDEEEHITFITSEFKPENIVLGQGFIAAPSKKDAVDWLKVIRTVLIFYDS	-1.61
HMYLSNPTYRGDSLVDALTQIGVDASFASRRDLARKNGIENYTGSAKQNLELLQLLREGRLR	-0.173
HMKVTTGIDGLIGEEGVALSDFSGKGKIMVHGEIWNAEFSGEVKKGEVLLVEKANGMTLITRKKN	-0.401
HMIDRADLWEALRKLPEDTLKLFSLHFEKGMTHDEISKHTDIPVGTVKTKLRRGLIEARKLAREF	-0.394
HMASATGVVTAASLNVRSGAGTNYSVVNTLAKGTKVTVLNTADGWYEIEATVNNEKITGYVSATYIAMD	-0.0486

Reference: the domain aggregation screens of Martell et al. (2025)
